Results from publication PMC8531669, “Quantitative proteomics identifies the universally conserved ATPase Ola1p as a positive regulator of heat shock response in Saccharomyces cerevisiae” (The Journal of Biological Chemistry, 2021).

Molecular target: the molecule itself
Experiment: light scattering coupled to nanoDSF; Ola1p (4 μM in Fig. 3G) in 20 mM PIPES pH 7.0, 100 mM KCl, 1 mM TCEP; temperature ramp 0.5 °C/min from 20 °C to 70 °C; read between 38 and 42 °C

B1: Ola1p (natural protein, S. cerevisiae, UniProt P38219 1-394, looked up)
chain: MPPKKQVEEKKVLLGRPGNNLKAGIVGLANVGKSTFFQAITRCPLGNPANYPFATIDPEEARVIVPSPRFDKLCEIYKKTASEVPAHLTVYDIAGLTKGASAGEGLGNAFLSHIRSVDSIYQVVRCFDDAEIIHVEGDVDPVRDLEIINQELRLKDIEFAQKALEGAEKIAKRGGQSLEVKQKKEEMDLITKIIKLLESGQRVANHSWTSKEVEIINSMFLLTAKPCIYLINLSERDYIRKKNKHLLRIKEWVDKYSPGDLIIPFSVSLEERLSHMSPEDAEEELKKLQTISALPKIITTMRQKLDLISFFTCGPDEVREWTIRRGTKAPQAAGVIHNDLMNTFILAQVMKCEDVFEYKDDSAIKAAGKLMQKGKDYVVEDGDIIYFRAGAGKN
notes: Ola1p (Obg-like ATPase 1), S. cerevisiae, systematic name Ybr025c; The methods say that the MBP tag was cleaved with Precision protease; also called Ybr025c; MBP-Ola1p (before cleavage); source: insect cells (baculovirus expression system), purified (amylose resin, size-exclusion chromatography); not shown: MBP, N-terminal, cleaved
binding result: binds
